Data on five compounds can be found in article PMC11044165, “Two Novel [^68Ga]Ga-Labeled Radiotracers Based on Metabolically Stable [Sar^11]RM26 Antagonistic Peptide for Diagnostic Positron Emission Tomography Imaging of GRPR-Positive Prostate Cancer” (ACS Omega, 2024).

The nature of one data set: in vivo. Details: species or system BALB/C nu/nu mice. The conditions noted are these: BALB/C nu/nu, mouse, iv, total radioactivity. The procedure:
In vivo studies were conducted in accordance with European guidelines on laboratory animal protection and the Declaration of Helsinki. For the biodistribution and PET/CT experiments BALB/C nu/nu mice were used and the protocols were approved by the ethics committee for animal research in Uppsala (Sweden); permit number 00473/21.
After acclimatization, animals were subcutaneously injected on the right hind leg with a suspension of freshly harvested PC-3 cells (7 × 10^6 per animal) in PBS. Four weeks after, well palpable solid tumors were developed and the animals were randomly assigned in groups of four.
Animals (19 ± 2 g at the day of the experiment) were injected through the tail vein with 100 μL solution of radiopeptide under evaluation (40 pmol, 100 kBq–1 h pi, 40 pmol, 700 kBq–3 h pi) in PBS containing 1% w/v BSA. Another group of animals received a bolus injection with the radioconjugate (40 pmol, 300 kBq) in addition of 4 nmol of NOTA-PEG2-RM26–1 h pi Block group. At specified time points, animals were euthanized, tissues/organs of interest and tumors were collected, weighted, and the radioactivity content of the samples was measured.
Statistical analysis for the biodistribution data was performed with GraphPad Prism 7, employing a two-way ANOVA test with Tuckey’s posthoc analysis.

The conditions of data set [1]: in vivo; cited from earlier work. From the text: In agreement with their preclinical data, SUV values for the pancreas for [^68Ga]Ga-SB3 and [^68Ga]Ga-RM2 were around 40, while for [^68Ga]Ga-PEG3-RM26, this value was 2-fold lower.
For a further data set, the system named is PC-3 bearing mice. The conditions noted are these: mouse, in vivo; cited from earlier work. Here is the method:
It is quite interesting to compare the biodistribution results for the two new conjugates with their counterparts without the Gly^11/Sar^11 substitution, i.e., [^68Ga]Ga-NOTA-PEG2-RM26 and [^68Ga]Ga-NODAGA-PEG2-RM26, previously reported.[24] Despite the similar amounts of peptide and activity injected, the biodistribution data for [^68Ga]Ga-NOTA-PEG2-RM26 and [^68Ga]Ga-NODAGA-PEG2-RM26, in PC-3 bearing mice, are reported only for […].[24] Under these conditions, we are going to focus on a comparison with the data for 3 h pi.

[2] abbreviates: 40 pmol, Activity in GI (gastrointestinal tract).
[3] abbreviates: 40 pmol, Activity uptake in blood.
Where [4] appears, read: 40 pmol, Activity uptake in kidneys.
[5] abbreviates: 40 pmol, Activity uptake in tumor.
Setting [6] is: Activity in GI (gastrointestinal tract).

Take `CC(C)C[C@H](NC(=O)C[C@H](O)[C@H](CC(C)C)NC(=O)[C@H](Cc1c[nH]cn1)NC(=O)CN(C)C(=O)[C@@H](NC(=O)[C@H](C)NC(=O)[C@H](Cc1c[nH]c2ccccc12)NC(=O)[C@H](CCC(N)=O)NC(=O)[C@@H](Cc1ccccc1)NC(=O)COCCOCCNC(=O)CCC(C(=O)O)N1CCN(CC(=O)O)CCN(CC(=O)O)CC1)C(C)C)C(N)=O` (stereo partly drawn) [[^68Ga]Ga-NODAGA-PEG2-[Sar^11]RM26, metal not drawn]: the tissue uptake dose at 1 h came out at 2.5 ± 0.3 %ID in the data set “in vivo” (setting [2]); 3.8 ± 0.6 %ID in the data set “in vivo” (40 pmol, Activity in body); 1.6 ± 0.2 %ID in “in vivo” (setting [6]); 4 ± 3 %ID in “in vivo” (Activity in body). Further, the tissue uptake dose at 3 h in the data set “in vivo” (setting [2]) is 1.8 ± 0.7 %ID; in “in vivo” (40 pmol, Activity in body), 2.2 ± 0.9 %ID. Besides, the tissue uptake at 1 h in the data set “in vivo” (setting [3]) was under 1 %ID/g; in “in vivo” (setting [4]), under 5 %ID/g; in “in vivo” (setting [5]), 17 ± 3 %ID/g. Further, the tissue uptake at 3 h in the data set “in vivo” (setting [5]) is 15 ± 3 %ID/g.

Turning to `CC(C)C[C@H](NC(=O)C[C@H](O)[C@H](CC(C)C)NC(=O)[C@H](Cc1c[nH]cn1)NC(=O)CN(C)C(=O)[C@@H](NC(=O)[C@H](C)NC(=O)[C@H](Cc1c[nH]c2ccccc12)NC(=O)[C@H](CCC(N)=O)NC(=O)[C@@H](Cc1ccccc1)NC(=O)COCCOCCNC(=O)CN1CCN(CC(=O)O)CCN(CC(=O)O)CC1)C(C)C)C(N)=O` [[^68Ga]Ga-NOTA-PEG2-[Sar^11]RM26, metal not drawn], the tissue uptake dose at 1 h in the data set “in vivo” (setting [2]) came out at 3 ± 0.4 %ID; in the data set “in vivo” (40 pmol, Activity in body), 5 ± 0.2 %ID; in the data set “in vivo” (setting [6]), 1.7 ± 0.2 %ID; in the data set “in vivo” (Activity in body) it was 4.1 ± 0.6 %ID. For the same compound, the tissue uptake dose at 3 h in the data set “in vivo” (setting [2]) is 2 ± 1 %ID; in the data set “in vivo” (40 pmol, Activity in body), 2 ± 1 %ID. Moreover, the tissue uptake at 1 h is under 1 %ID/g in “in vivo” (setting [3]), under 5 %ID/g in “in vivo” (setting [4]) and 14 ± 3 %ID/g in “in vivo” (setting [5]). The tissue uptake at 3 h in the data set “in vivo” (setting [5]) was found to be 13 ± 1 %ID/g.

Turning to “DOTA-Pip-DPhe-Gln-Trp-Ala-Val-Gly-His-Sta-Leu-NH2 [[^68Ga]Ga-RM2, GRPR-targeting radioconjugate tested in clinical trials]”, the “SUV values for the pancreas” value in data set [1] is “around 40”.

With “DOTA-p-aminomethylaniline-diglycolic acid-DPhe-Gln-Trp-Ala-Val-Gly-His-Leu-NHEt [[^68Ga]Ga-SB3, GRPR-targeting radioconjugate tested in clinical trials]”, the “SUV values for the pancreas” value in data set [1] was “around 40”.

For the compound “NOTA-PEG3-d-Phe-Gln-Trp-Ala-Val-Gly-His-Sta-Leu-NH2 [[^68Ga]Ga-NOTA-PEG3-RM26, GRPR-targeting radioconjugate tested in clinical trials]”, the Tumor/pancreas ratio entry in the data set on PC-3 bearing mice is listed as “over 1”. Also, the “SUV values for the pancreas” value in data set [1] is 2-fold lower.
